Reference: publication PMC5655142, “Anti-diabetic drug binding site in a mammalian KATP channel revealed by Cryo-EM” (eLife, 2017)

Molecular target: the molecule itself
Test: cryo-EM structure; purified SUR1/Kir6.2 KATP channel in digitonin, 1 mM ATP (no Mg2+) and 1 µM glibenclamide; C4 symmetry imposed; 3.63 Å

B1: rat Kir6.2 (natural protein)
chain: MLSRKGIIPEEYVLTRLAEDPTEPRYRTRERRARFVSKKGNCNVAHKNIREQGRFLQDVFTTLVDLKWPHTLLIFTMSFLCSWLLFAMVWWLIAFAHGDLAPGEGTNVPCVTSIHSFSSAFLFSIEVQVTIGFGGRMVTEECPLAILILIVQNIVGLMINAIMLGCIFMKTAQAHRRAETLIFSKHAVITLRHGRLCFMLRVGDLRKSMIISATIHMQVVRKTTSPEGEVVPLHQVDIPMENGVGGNSIFLVAPLIIYHVIDSNSPLYDLAPSDLHHHQDLEIIVILEGVVETTGITTQARTSYLADEILWGQRFVPIVAEEDGRYSVDYSKFGNTVKVPTPLCTARQLDEDRSLLDALTLASSRGPLRKRSVAVAKAKPKFSISPDSLS
notes: the final model holds residues 32-352, the distal N- and C-termini were not seen in the map; source: INS-1 clone 832/13 cells, infected with recombinant adenovirus, co-expressed with FLAG-SUR1; purified as the channel complex (digitonin, anti-FLAG M2 agarose, FLAG peptide elution)
- stoichiometry N: 4
